From publication doi:10.1101/2021.09.16.459956

Molecular target: Paracoccidioides americana (Pb03) Cbp1 (Paracoccidioides americana (Pb03))
Assay: crystal structure

Paracoccidioides americana (Pb03) Cbp1 (natural protein)
stoichiometry N: 2
